# Laboratory results from publication PMC4809050 (2016).
# T1: CCR7 N-terminus peptide 2-30 (Homo sapiens, UniProt P32248)
# T1 chain: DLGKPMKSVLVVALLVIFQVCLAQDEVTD
# T2: PSGL-1 N-terminus peptide 2-15 (Homo sapiens, UniProt Q14242)
# T2 chain: PLQLLLLLILLGPG
# T3: CCR7 N-terminus peptide 1-30 (Homo sapiens, UniProt P32248)
# T3 chain: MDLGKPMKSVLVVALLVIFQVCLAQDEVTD
# B1: CCL19 (protein)
# chain: GTNDAEDCCLSVTQKPIPGYIVRNFHYLLIKDGCRVPAVVFTTLRGRQLCAPPDQPWVERIIQRLQRTSAKMKRRSS
# What was measured:
# Test in all cases: NMR chemical shift titration
# [1] = target: T1, CCR7 N-terminus peptide 2-30
# [2] = target: PSGL-1 N-terminus peptide 1-15 (Homo sapiens, UniProt Q14242, N-terminal pyroglutamate)
# [3] = target: T2, PSGL-1 N-terminus peptide 2-15
# [4] = target: T3, CCR7 N-terminus peptide 1-30
binder,measurement,setting,value
B1,Kd,[1],12 µM
same,Kd,[2],20 µM
same,Kd,[3],18 µM
same,Kd,[4],52 µM
